Experimental data published in US20240228596A1 (VIB VZW, published 2024).

Target: SARS-COV-1 spike protein on VSV-delG pseudotyped particles (SARS-COV-1, UniProt P59594 14-1255)
Test: cell-based or functional assay

B1: VHH72_h1_S56A (VHH)
VHH: EVQLVESGGGLVQPGGSLRLSCAASGRTFSEYAMGWFRQAPGKEREFVATISWSGGATYYTDSVKGRFTISRDNAKNTVYLQMNSLRPEDTAVYYCAAAGLGTVVSEWDYDYDYWGQGTLVTVSS
B1 was tested, and the “IC50 Mean VSV-dG-spike SARS-COV-1” value was 0.013 µg/mL.
